This data set relates to MS2 coat protein. In words: apparent KD of MS2 coat protein; designed switch direction (-1 OFF switch, 1 ON switch): -1; higher = weaker reporter binding. The essentials:
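For each design, the apparent KD is the median over clusters of curves fitted to normalised cluster fluorescence. Clusters held RNA switches with common flanks, transcribed on Illumina chips by stalled E. coli RNA polymerase. These were titrated with SNAP-549-labelled MS2 coat protein, doubling from 0.7 or 1.5 nM to 3 µM, without input, with 200 uM small-molecule ligand, or with an oligonucleotide input.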

The mark [1] stands for this setting: Eterna round: R95, input ligand: FMN 200 uM.
The mark [2] stands for this setting: Eterna round: R95, input ligand: microRNA oligo, concentration not stated.
[3] abbreviates: Eterna round: R95, input ligand: none.
The mark [4] stands for this setting: input ligand: microRNA oligo, concentration not stated.

“CUGAGCAGACGGAGAUCCAACAUGAGGAUCACCCAUGUCUCAAAAGCUUUUUGCUCAUCUUAUUGUACCUUGGUGCU [JL ViennaUCT Edcesobi mod 2] (puzzle: Sensor v3, turn-off variant 1)”: the “apparent KD of MS2 coat protein” value was found to be 391 nM under setting [1], 17.6 nM under setting [2] and 342 nM under setting [3].
Consider “CUGAGCAGACGGAGAUCCAACAUGAGGAUCACCCAUGUCUCAGAAGCUUUUUGCUCGUCUUAUCCUCCUCUGUUCAC [Elimod 21 - Jieux - Sensor, turn-off variant 1] (Eterna round: R97, puzzle: Sensor, turn-off variant 1)”, for which the “apparent KD of MS2 coat protein” value amounted to 103 nM (input ligand: FMN 200 uM) and 119 nM (input ligand: none).
For “CUGAGCUGAGGAUAUACAUGAGGAUCACCCAUGUUUUGUAGAUAGUGAAGAAGUAGAUGUAGAAGGCAGUUCGG [Mod of JL 24 - Jieux - Exclusion 3] (Eterna round: R97, puzzle: Exclusion 3)”, the “apparent KD of MS2 coat protein” value by setting is: (input ligand: FMN 200 uM) 206 nM; (input ligand: none) 146 nM.
For “CUGAGGUAGCGGUCCUAUGACAUGAGGAUCACCCAUGUACCUUGCUACGAGCUUUUUGCUCGUCUUAUGAUUCUCGG [JL Atriat mod 4] (puzzle: Sensor v3, turn-off variant 1)”, the “apparent KD of MS2 coat protein” value under setting [1] was 166 nM, the “apparent KD of MS2 coat protein” value under setting [2] was determined as 93.9 nM and the “apparent KD of MS2 coat protein” value under setting [3] was found to be 250 nM.
For the sequence “CUGAGGUAGCGGUCCUAUGACAUGAGGAUCACCCAUGUACCUUGCUUUGAGCUAUUUGCUCGUCUUAUGAUUCUCGG [Mat - Sensor v3 - turn-off var 1 - JL Mod - D40] (Eterna round: R96, puzzle: Sensor v3, turn-off variant 1)”, the “apparent KD of MS2 coat protein” value is, setting by setting: (input ligand: FMN 200 uM) 788 nM; under setting [4], 655 nM; (input ligand: none) 758 nM.
In the case of “CUGAGGUAGCGGUCCUAUGACAUGAGGAUCACCCAUGUACCUUGCUUUGAGCUAUUUGCUCGUCUUAUGAUUCUCGG [Mat - Sensor v3 - turn-off var 1 - JL Mod - D40] (puzzle: Sensor v3, turn-off variant 1)”, the “apparent KD of MS2 coat protein” value is, setting by setting: under setting [1], 457 nM; under setting [2], 355 nM; under setting [3], 545 nM.
With “CUGAGUUCAGGAUAUACAUGAGGAUCACCCAUGUAAAGUAGCUUGCGUACAGGCAGAUGUAGAAGGGAAUUCGG [Mod of JL 6 - Jieux - Exclusion 3] (Eterna round: R97, puzzle: Exclusion 3)”, the “apparent KD of MS2 coat protein” value stood at 30.2 nM (input ligand: FMN 200 uM) and 19 nM (input ligand: none).
For the sequence “CUGAUGUGAGGAUAUCUAAGGCGACCAUGAGACAUGGGCCAAGAGAAGGCACAUGAGGAUCACCCAUGUACCGA [Anertees] (Eterna round: R97, puzzle: Exclusion 4)”, the “apparent KD of MS2 coat protein” value is, setting by setting: (input ligand: FMN 200 uM) 83.8 nM; (input ligand: none) 22.2 nM.
For “CUGGUCCGAGGAUAUAUGAUGUGAAACAUGAGGAUCACCCAUGUAAUAUUAUGGAGGUAAAUAGAAGGCGGACUAG [Mat - Exclusion 5 - JL mod - D35] (puzzle: Exclusion 5)”, the “apparent KD of MS2 coat protein” value came to 45.3 nM under setting [1], 55.2 nM under setting [2] and 60 nM under setting [3].
Taken in the same sequence, the figures for “CUGGUCCGAGGAUAUAUUAAGUGAUACAUGAGGAUCACCCAUGUAAUUUAAUGGAAAUAAAUAGAAGGCGGACUAG [Mat - Exclusion 5 - JL mod - D51] (puzzle: Exclusion 5)” were 30 nM, 65.3 nM and 62.5 nM.
Take “CUGGUCCGAGGAUAUAUUAUGUGAUACAUGAGGAUCACCCAUGUUAUAUAAUGGAUGUAAAUAGAAGGCGGACUAG [JL-ex5-3.16] (puzzle: Exclusion 5)”: the “apparent KD of MS2 coat protein” value worked out at 60.3 nM under setting [1], 43.2 nM under setting [2] and 44 nM under setting [3].
As for “CUGGUGCGCGGAGGAUAUCGGAAAGGAAGUGUACGAGAAGGUCGUUCCACCAAACAUGAGGAUCACCCAUGUAGGAGUGACCUC [PowerStrip EXNG 1.7] (Eterna round: R96, puzzle: Exclusion NG 1)”, the “apparent KD of MS2 coat protein” value reads like this: (input ligand: FMN 200 uM) 127 nM; under setting [4], 45.6 nM; (input ligand: none) 62.9 nM.
Turning to “CUGUUACAUGAGGAUCACCCAUGUGAGGAUAUGGUUCGGUACUGUCCUGUCGCGUACUCCAGAAGGCACGUGUU [1st #36] (Eterna round: R97, puzzle: Exclusion 1)”, the “apparent KD of MS2 coat protein” value (input ligand: FMN 200 uM) was 46.5 nM and the “apparent KD of MS2 coat protein” value (input ligand: none) worked out at 36.5 nM.
The matching figures for “CUUAAGUUAGGAUAUGCGCUACGGAAUCGUGGUUAUAGACAGCAGAAGGAACUUGAGGAUCACCCAAGUAAAUA [Inatsoce] (Eterna round: R97, puzzle: Exclusion 4)”: 89.2 nM and 108 nM.
Taken in the same sequence, the figures for “CUUAGCGUAGGAUAUUAGUACAUGAACAUGAGGAUCACCCAUGUGAGGUGGGUCUUAGAUUAAGAAGGGCGAAGAA [EX5 #32] (Eterna round: R97, puzzle: Exclusion 5)” were 221 nM and 249 nM.
The matching figures for “CUUAGGGCGGAGGAUAUGCCGUGGGCGAAUACAGUAGAAGGCCGCACUUGAGGAUCACCCAAGUAUGGUCAAAC [Inusisbeor] (Eterna round: R97, puzzle: Exclusion 6)”: 15.4 nM and 13.1 nM.
“CUUAUGUCAGGAUAUGCCUGGCCGUGAGGCCAAAUUGAAUAGCAGAAGGGACAUGAGGAUCACCCAUGUCCGGG [jl-ex4-4.64 ViennaUCT mod] (Eterna round: R97, puzzle: Exclusion 4)”: the “apparent KD of MS2 coat protein” value (input ligand: FMN 200 uM) amounted to 115 nM and the “apparent KD of MS2 coat protein” value (input ligand: none) was 130 nM.
Take “CUUCAAUCACCAGAGCUCACACUUAUACCUGCUCUGGUGACAUGAGGAUCACCCAUGUUUUUUGCCCGUCUUAUCUU [Sensor v3, turn-off variant 2 (MOD of Leso v.3)] (puzzle: Sensor v3, turn-off variant 2)”: the “apparent KD of MS2 coat protein” value under setting [1] is 86.6 nM, the “apparent KD of MS2 coat protein” value under setting [2] worked out at 33 nM and the “apparent KD of MS2 coat protein” value under setting [3] amounted to 97.4 nM.
“CUUCGACAUGAGGAUCACCCAUGUCAGGAUAUUGUGUAUCGGGUUUUUUACGGAAAGGCAAGAAGGGAUGUGUG [LRO-Excl1-07] (puzzle: Exclusion 1)”: the “apparent KD of MS2 coat protein” value under setting [2] turned out to be 25.4 nM.
Regarding “CUUCGUAUAGAGGAUAUAGGAUACUGCGGUGUCCUAGAAGGCUGUACAUGAGGAUCACCCAUGUACUUCAGAUC [Exclusion 6 - B - 14:c] (puzzle: Exclusion 6)”, under setting [2], the “apparent KD of MS2 coat protein” value turned out to be 12 nM.
With “CUUCGUAUAGAGGAUAUAGGAUACUUCGGUGUCCUAGAAGGCUGUACAUGAGGAUCACCCAUGUACUUCAGAUC [Exclusion 6 - B - 14:b] (puzzle: Exclusion 6)”, the “apparent KD of MS2 coat protein” value under setting [2] was 11.9 nM.
With “CUUCGUGUCAAGGAUAUACAGCAACUAUCCGGAGUAGAAGGUGGCACUUGAGGAUCACCCAAGUGCGUGGGUGU [Uszaqubi] (Eterna round: R97, puzzle: Exclusion 6)”, the “apparent KD of MS2 coat protein” value reads like this: (input ligand: FMN 200 uM) 33.5 nM; (input ligand: none) 25.7 nM.
On to “CUUCGUUGUAAGGAUAUCCAGACUCUUCCUGUCGGAGAAGGUACAACAUGAGGAUCACCCAUGUUGCUACAUGG [Zaaqu] (puzzle: Exclusion 6)”, for which the “apparent KD of MS2 coat protein” value under setting [2] turned out to be 21.6 nM.
Turning to “CUUGCGGAUAAAGGAUAUUGCGGUGACCGGCUCGGCGUACCGAGCCUACAUGAGGAUCACCCAUGUAAGAAGGUUGUCGCUGGU [JL ViennaUCT Qudice mod 3] (Eterna round: R96, puzzle: Exclusion NG 2)”, the “apparent KD of MS2 coat protein” value is, setting by setting: (input ligand: FMN 200 uM) 12.9 nM; under setting [4], 8.45 nM; (input ligand: none) 14.1 nM.
With “CUUGUUUAUGUAGGAUAUGCCUGGCGUGCCUUUGCAGAAGGACAUGAGGAUCACCCAUGUAUUGCGGUCUGCGUUCAGAUCGCU [salish99_ExNG1_r4_044] (Eterna round: R96, puzzle: Exclusion NG 1)”, the “apparent KD of MS2 coat protein” value is, setting by setting: (input ligand: FMN 200 uM) 41.1 nM; under setting [4], 28.8 nM; (input ligand: none) 36.6 nM.
For “CUUUAACAAGCGAGAUCCAACAUGAGGAUCACCCAUGUGCAUCCACGAUUAGUGGGUGCGAAAGCUCGUCUUAUAUG [v1] (Eterna round: R97, puzzle: Sensor, turn-off variant 1)”, the “apparent KD of MS2 coat protein” value by setting is: (input ligand: FMN 200 uM) 20.9 nM; (input ligand: none) 21.6 nM.
As to “CUUUGGUCAGGAUAUGGUGGGCUGGUCGCGCGGCCGGGUGGCCAGAAGGGACAUGAGGAUCACCCAUGUACGGC [excls4-X] (Eterna round: R96, puzzle: Exclusion 4)”, the “apparent KD of MS2 coat protein” value is, setting by setting: (input ligand: FMN 200 uM) 106 nM; under setting [4], 53 nM; (input ligand: none) 84.3 nM.
“CUUUUGUGAGGAUAUCAGUAGUAAAAAAAUAAAAUUACUAUUGAGAAGGCACAUGAGGAUCACCCAUGUUCCUC [salish99_ex4_r3_029] (puzzle: Exclusion 4)”: the “apparent KD of MS2 coat protein” value under setting [2] amounted to 36.4 nM.
Consider “CUUUUGUGAGGAUAUCAGUAGUAAAAAUAUAAAAUUACUACUGAGAAGGCACAUGAGGAUCACCCAUGUUCCUC [salish99_ex4_r3_020] (puzzle: Exclusion 4)”, for which the “apparent KD of MS2 coat protein” value under setting [2] was 37.2 nM.
On the same count and under the same terms, as for “CUUUUGUGAGGAUAUCAGUAGUAAAAGAAUAAAAUUACUACUGAGAAGGCACAUGAGGAUCACCCAUGUUCCUC [Mat - Exclusion 4 - Mod of Salish - D61] (puzzle: Exclusion 4)”, the figure is 36.7 nM; as for “CUUUUGUGAGGAUAUUAGUAGUAAAAAAAUAAAAUUACUACUGAGAAGGCACAUGAGGAUCACCCAUGUUCUUC [salish99_ex4_r3_038] (puzzle: Exclusion 4)”, 17.5 nM.

For the origin of these results see the supplement of paper PMC9170038.
